Laboratory results published in patent CN113234145A (THE FIFTH AFFILIATED HOSPITAL SUN YAT SEN UNIV; ZHUHAI …, dated 2021).
Where a chain is given by its changes, count along the chain named.

B1: nCoV396 (antibody, V domains shown)
VH: QVQLVESGGGVVQPGRSLRLSCAASGFTFSSYIMHWVRQAPGKGLEWVAVISYDGSNEAYADSVKGRFTISRDNSKNTLYLQMSSLRAEDTGVYYCARETGDYSSSWYDSWGRGTLVTVSS
VL: QLVLTQSPSASASLGASVKLTCTLSSGHSNYAIAWHQQQPEKGPRYLMKVNSDGSHTKGDGIPDRFSGSSSGAERYLTISSLQSEDEADYYCQTWGTGIQVFGGGTKLTVL
B2: nCoV425 (antibody, V domains shown)
VH: QVQLVESGGGVVQPGRSLRLSCAASGFTFSNYAMHWVRQPPGKGLEWVAIISYEGRTEYADSMKGRFTISRDNSKSAVYLQMNSLRPEDTAVYYCAREVFDISGSWFDYWGQGTLVTVSS
VL: B1 VL with G27R, V50L, Q83H, L108V, L111V
B3: nCoV402 (antibody, V domains shown)
VH: QVQLVESGGGVVQPGGSLRLSCAASGFTFSRFTMHWVRQAPGKGLEWVAIISFNGSDKLYVDSVKGRFTVSRDSSKEMLYLQMSSLRHEDTAVYYCARETEDYTSSYFDYWGQGTLVTVSS
VL: B1 VL with S29N, E41Q, K42T, Y46F, T57V, S67T, A73T, E74G, G96A, T97S
B4: nCoV454 (antibody, V domains shown)
VH: QVQLVESGGGVVQPGGSLRLSCVTSGFTFSNYAMHWVRQAPGKGLEWVAIISYDGSHLYGDSVKGRFTISRDNSKNTLYLEMSSLRNEDTATYYCARETPEVSGSWIDYWGQGALVIVSS
VL: B1 VL with K19N, S25T, S29N, N30S, E41N, V50L, T57D, A73T, I99V
B5: nCoV416 (antibody, V domains shown)
VH: QVQLVQSGAVLKRPGASVKLSCKASGYIFTSYHIHWVRQAPGQGLEWLGTINPRGDVTAYAQKFQGRVSLTRDTSTTTVYMELSSLRSEDTAIYYCAREHGDVSSSVFDHWGQGTLVSVSS
VL: B1 VL with V18I, Q37K, P44L, T57N, A73P, T78I, E85D, Y91H, G96A, T97S
B6: nCoV424 (antibody, V domains shown)
VH: QVQLVQSGAEVKKPGASVKLSCKASGYTFSSYYIHWVRQAPGQGLEWLGIINPGGDITAYAQKFQGRVSLTRDTSTSTVYMQLSSLRYEDTAVYYCAREEGDVSTSVFDNWGQGTLVTVSS
VL: B1 VL with V18I, S29R, N30S, E41G, V50L, T57I, I62V, T78S, Y91H, K107R
B7: nCoV457 (antibody, V domains shown)
VH: QVQLVESGGGVVQPGRSLRLSCVASGFTFSRYIIHWVRQAPGKGLEWVAVISYDGTAALYADTVKGRFTISRDNSKNTLYLQMNSLRADDTAVYYCARETGEMSTSYFEYWGQGTLVTVSS
VL: B1 VL with G27R, S29N, Y46F, E85D, I99N, L108V
B8: nCoV433 (antibody, V domains shown)
VH: QVQLVESGGGVVQPGRSLRLSCAASGFTFSNYAMHWVRQAPGKGLEWVTIISYDGTNIYEDSVKGRFTISRDNSKNTLYLQMNSLRAEDTAVYYCAREVFDSSGSWFDYWGQGTLVTVSS
VL: B1 VL with K19R, T23S, S29R, V50L, I62V, L108V
B9: nCoV400 (antibody, V domains shown)
VH: EVQLLESGGGLVQPGGSLRLSCAASGFTFSSYAMSWVRQAPGKGLEWVSVIYSGGSSTYYADSVKGRFTISRDNSKNTLYLQMNSLRAEDTAVYYCAKDHLELSAAGSQINYYYYGMDVWGQGTTVTVSS
VL: SYELTQPPSVSVSPGQTARITCSGDALPKQYAYWYQQKPGQAPVLVIYKDSERPSGIPERFSGSSSGTTVTLTISGVQAEDEADYYCQSADSSGTSHWVFGGGTKLTVL

target: SARS-CoV N蛋白 (SARS-CoV, UniProt P59595 1-422); assay: SPR (Biacore X100), antibody captured as ligand, SARS-CoV N protein as analyte

Binder	Kd [nM]
B1	7.44

target: T1, SARS-CoV-2病毒N蛋白(全长) (SARS-CoV-2, UniProt P0DTC9 1-419); assay: not given

Binder	EC50 [ng/mL]
B1	3.2
B2	5.2
B3	6.3
B4	5
B5	3.3
B6	11.8
B7	2.6
B8	5.3
B9	1110

target: MERS-CoV N蛋白 (MERS-CoV, UniProt K9N4V7 1-411); assay: SPR (Biacore X100), antibody captured as ligand, MERS-CoV N protein as analyte

Binder	Kd [nM]
B1	7.43

target: T1, SARS-CoV-2病毒N蛋白(全长); assay: SPR (Biacore X100), antibody captured as ligand, N protein as analyte

Binder	Kd [nM]
B1	1.02
